pKd: −log10 of the molar value.

In test [1] the target is mNrxn1β^−SS4-FLAG (C-terminally FLAG-tagged mouse Nrxn1β lacking the SS4 insert) (mouse). As to the kind of experiment: saturation binding on cells with Scatchard analysis.
Test [2] deals with mNrxn1β^+SS4-FLAG (C-terminally FLAG-tagged mouse Nrxn1β containing the SS4 insert) (mouse) (UniProt P0DI97). The description is as above.
Chain of mNrxn1β^+SS4-FLAG (C-terminally FLAG-tagged mouse Nrxn1β containing the SS4 insert) (mouse) (P0DI97 47-468): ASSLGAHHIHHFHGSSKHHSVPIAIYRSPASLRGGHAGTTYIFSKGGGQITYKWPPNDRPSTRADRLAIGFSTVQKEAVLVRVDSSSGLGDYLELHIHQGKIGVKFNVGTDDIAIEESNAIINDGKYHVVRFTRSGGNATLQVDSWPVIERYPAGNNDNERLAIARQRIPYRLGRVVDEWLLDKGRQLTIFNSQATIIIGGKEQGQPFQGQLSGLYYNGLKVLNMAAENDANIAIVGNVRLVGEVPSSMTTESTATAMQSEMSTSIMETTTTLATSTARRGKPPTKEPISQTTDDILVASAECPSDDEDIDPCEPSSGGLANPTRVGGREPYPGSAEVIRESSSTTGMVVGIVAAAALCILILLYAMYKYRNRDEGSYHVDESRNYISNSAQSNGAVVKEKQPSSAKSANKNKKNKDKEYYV

For the substance “Ig-Clstn3 (Ig-fused calsyntenin-3) (from UniProt Q99JH7 20-956) (Fc fusion)”, the values for the pKd in test [1] and in test [2] were 6.97 and 7.29, respectively.

(Values after doi:10.1101/2020.01.24.918722.)
